Source: US20150037339A1 (Regeneron, published 2015)

What was measured:
Activin A [1] = molecular target: T1, Activin A (human, UniProt P08476 311-426); experiment: cell-based or functional assay
T1 sequence: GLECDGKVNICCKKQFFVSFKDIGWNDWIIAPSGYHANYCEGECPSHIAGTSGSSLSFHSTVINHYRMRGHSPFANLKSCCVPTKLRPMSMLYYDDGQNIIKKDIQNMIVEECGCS

Activin AB [2] = molecular target: T2, Activin AB (human, UniProt P08476 311-426; P09529 293-407); experiment: cell-based or functional assay
T2 chain 1: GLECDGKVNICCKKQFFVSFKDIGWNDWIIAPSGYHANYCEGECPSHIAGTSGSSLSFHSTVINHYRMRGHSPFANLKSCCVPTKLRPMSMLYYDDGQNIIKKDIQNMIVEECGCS
T2 chain 2: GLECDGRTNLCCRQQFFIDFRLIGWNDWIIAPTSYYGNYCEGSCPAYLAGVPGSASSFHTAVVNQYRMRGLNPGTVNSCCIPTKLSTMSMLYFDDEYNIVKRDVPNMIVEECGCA

Activin AC [3] = molecular target: T3, Activin AC (human, UniProt P55103 237-352); experiment: cell-based or functional assay
T3 sequence 1: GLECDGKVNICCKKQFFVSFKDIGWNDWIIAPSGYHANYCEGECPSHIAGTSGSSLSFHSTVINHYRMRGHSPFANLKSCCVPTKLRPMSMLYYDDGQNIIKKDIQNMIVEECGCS
T3 sequence 2: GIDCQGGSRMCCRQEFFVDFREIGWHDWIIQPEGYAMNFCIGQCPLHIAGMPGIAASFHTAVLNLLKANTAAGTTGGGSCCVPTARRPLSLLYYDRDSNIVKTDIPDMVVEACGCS

Activin AB [4] = molecular target: T2, Activin AB; experiment: SPR (Biacore), mAb captured on anti-Fc, Activin AB injected, 25 C
Method: (§1) Antibody-antigen association was monitored for 240 seconds while dissociation in buffer was monitored for 600 seconds. Kinetic association and dissociation rate constants were determined by processing and fitting the data using Scrubber software version 2.0c. Binding equilibrium dissociation constants (KD) and dissociative half-lives (t_{1/2}) were then calculated from the kinetic rate constants as: KD (M)=kd/kₐ and t_{1/2} (min)=[ln 2/(60*kd)]. (NB=no binding observed under the conditions used; NT=not tested).

Activin AB [5] = molecular target: T2, Activin AB; experiment: SPR (Biacore), mAb captured on anti-Fc, Activin AB injected, 37 C
Method: as §1

Activin AC [6] = molecular target: T3, Activin AC; experiment: SPR (Biacore), mAb captured on anti-Fc, Activin AC injected, 25 C
Method: as §1

Activin AC [7] = molecular target: T3, Activin AC; experiment: SPR (Biacore), mAb captured on anti-Fc, Activin AC injected, 37 C
Method: as §1

Activin A [8] = molecular target: T4, Activin A (human, UniProt P08476 311-426); experiment: SPR, captured mAb, 25C
T4 construct: Homodimer of two βA subunits; bought from R&D Systems (#338-AC); also called inhibin-βA dimer; human Activin A
T4 sequence: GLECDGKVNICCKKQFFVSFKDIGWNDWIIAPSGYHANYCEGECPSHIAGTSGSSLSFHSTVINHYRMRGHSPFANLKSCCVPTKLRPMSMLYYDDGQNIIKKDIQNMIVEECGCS
Method: as §1

Activin A [9] = molecular target: T4, Activin A; experiment: SPR, captured mAb, 37C
Method: as §1

Activin A [10] = molecular target: T4, Activin A; experiment: SPR, captured mAb, 25C; no dissociation observed, kd fixed
Method: as §1

Activin A [11] = molecular target: T4, Activin A; experiment: SPR, captured mAb, 37C; no dissociation observed, kd fixed
Method: as §1

B1: H4H10468P2 (antibody, human IgG4, V domains shown)
VH: QVQLQESGPGLVKPSETLSLTCTVSGGSFSSHFWSWIRQPPGKGLEWIGYIYYSGGTHYNPSLESRVTISVDTSKNQFSLKLNSVTAADTAVYYCARARSGITFGGLIVPGSFDIWGQGTMVTVSS
VL: not shown
B1 was tested, and the “IC50 [M], inhibition of 100 pM Activin A in A204/CAGAx12-Luc Smad2/3-luciferase bioassay” value (Activin A [1]) was 3.9e-11 M, the “IC50 [M], inhibition of 30 pM Activin AB in A204/CAGAx12-Luc Smad2/3-luciferase bioassay” value (Activin AB [2]) was 2.3e-09 M and the “IC50 [M], inhibition of 4 nM Activin AC in A204/CAGAx12-Luc Smad2/3-luciferase bioassay” value (Activin AC [3]) was 3.4e-09 M. The “50 nM Ag Bound (RU)” value (Activin AB [4]) was 34.7 RU, the Kd (Activin AB [4]) was 0.556 nM and the koff (Activin AB [4]) was 0.00209 s⁻¹. The kon (Activin AB [4]) was 3.76e+06 M⁻¹ s⁻¹, the t1/2 (Activin AB [4]) was 5.5 min and the “50 nM Ag Bound (RU)” value (Activin AB [5]) was 34.5 RU. For the same binder, the Kd (Activin AB [5]) was 0.88 nM, the koff (Activin AB [5]) was 0.00443 s⁻¹ and the kon (Activin AB [5]) was 5.03e+06 M⁻¹ s⁻¹. For the same binder, the t1/2 (Activin AB [5]) was 2.6 min, the “50 nM Ag Bound (RU)” value (Activin AC [6]) was 17.2 RU and the Kd (Activin AC [6]) was 7.41 nM. It also gave a koff (Activin AC [6]) of 0.00592 s⁻¹, a kon (Activin AC [6]) of 798000 M⁻¹ s⁻¹ and a t1/2 (Activin AC [6]) of 2 min. The “50 nM Ag Bound (RU)” value (Activin AC [7]) was 10.7 RU, the Kd (Activin AC [7]) was 17.3 nM and the koff (Activin AC [7]) was 0.0124 s⁻¹. The kon (Activin AC [7]) was 719000 M⁻¹ s⁻¹ and the t1/2 (Activin AC [7]) was 0.9 min.

B2: H4H10447P2 (antibody, human IgG4, V domains shown)
VH: QVQLQESGPGLVKPSETLSLTCSVSGGSFSSHFWSWIRQPPGKGLEWIGYIHYSGGTNYNPSLKSRVTISVDTSKNQFSLKLTSVTAADTADYYCARAISGITFGGMIVPGSFDVWGEGTMVTVSS
VL: not shown
For B2, the “IC50 [M], inhibition of 100 pM Activin A in A204/CAGAx12-Luc Smad2/3-luciferase bioassay” value (Activin A [1]) was 7.8e-11 M.

B3: H4H10448P2 (antibody, human IgG4, V domains shown)
VH: QVQLQESGPGLVKPSETLSLTCTVSGGTFSSHFWSWIRQPPGKGLEWIGYIFYTGGTNHNPSLKSRVTISIDTSKNQFSLKLTSVTAADTAVYYCARARSGITFGGVIVPGSFDIWGQGTMVTVSS
VL: not shown
B3 was tested, and the “IC50 [M], inhibition of 100 pM Activin A in A204/CAGAx12-Luc Smad2/3-luciferase bioassay” value (Activin A [1]) was 4.6e-11 M.

B4: H4H10445P2 (antibody, human IgG4, V domains shown)
VH: QVQLQESGPGLVKPSETLSLICSVSGGSFSSHFWSWIRQPPGKGLEWIGYVLYSGGTNYNPSLKSRVTISVDTSKNQFFLKLSSVTAADTADYYCARAISGITFGGIIVPGSFDIWGQGTMVTVSS
VL: not shown
For B4, the “IC50 [M], inhibition of 100 pM Activin A in A204/CAGAx12-Luc Smad2/3-luciferase bioassay” value (Activin A [1]) was 5.3e-11 M.

B5: H4H10447P2 (antibody, human IgG4, V domains shown)
VH: QVQLQESGPGLVKPSETLSLTCSVSGGSFSSHFWSWIRQPPGKGLEWIGYIHYSGGTNYNPSLKSRVTISVDTSKNQFSLKLTSVTAADTADYYCARAISGITFGGMIVPGSFDVWGEGTMVTVSS
VL: not shown
For B5, the “Activin A-20 nM (RU)” value (Activin A [8]) was 43 RU, the Kd (Activin A [8]) was ≤ 0.0212 nM and the kon (Activin A [8]) was 2.36e+06 M⁻¹ s⁻¹. For the same binder, the t1/2 (Activin A [8]) was ≥ 231 min, the “Activin A-20 nM (RU)” value (Activin A [9]) was 36 RU and the Kd (Activin A [9]) was ≤ 0.0107 nM. For the same binder, the kon (Activin A [9]) was 4.69e+06 M⁻¹ s⁻¹, the t1/2 (Activin A [9]) was ≥ 231 min and the koff (Activin A [10]) was ≤ 5e-05 s⁻¹. For the same binder, the koff (Activin A [11]) was ≤ 5e-05 s⁻¹.

B6: H4H10445P2 (antibody, human IgG4, V domains shown)
VH: QVQLQESGPGLVKPSETLSLICSVSGGSFSSHFWSWIRQPPGKGLEWIGYVLYSGGTNYNPSLKSRVTISVDTSKNQFFLKLSSVTAADTADYYCARAISGITFGGIIVPGSFDIWGQGTMVTVSS
VL: not shown
B6 was tested, and the “Activin A-20 nM (RU)” value (Activin A [8]) was 43 RU, the Kd (Activin A [8]) was ≤ 0.0208 nM and the kon (Activin A [8]) was 2.4e+06 M⁻¹ s⁻¹. For the same binder, the t1/2 (Activin A [8]) was ≥ 231 min, the “Activin A-20 nM (RU)” value (Activin A [9]) was 36 RU and the Kd (Activin A [9]) was ≤ 0.0115 nM. The kon (Activin A [9]) was 4.33e+06 M⁻¹ s⁻¹, the t1/2 (Activin A [9]) was ≥ 231 min and the koff (Activin A [10]) was ≤ 5e-05 s⁻¹. For the same binder, the koff (Activin A [11]) was ≤ 5e-05 s⁻¹.

B7: H4H10448P2 (antibody, human IgG4, V domains shown)
VH: QVQLQESGPGLVKPSETLSLTCTVSGGTFSSHFWSWIRQPPGKGLEWIGYIFYTGGTNHNPSLKSRVTISIDTSKNQFSLKLTSVTAADTAVYYCARARSGITFGGVIVPGSFDIWGQGTMVTVSS
VL: not shown
With B7 the “Activin A-20 nM (RU)” value (Activin A [8]) was 64 RU, the Kd (Activin A [8]) was ≤ 0.0105 nM and the kon (Activin A [8]) was 4.76e+06 M⁻¹ s⁻¹. The t1/2 (Activin A [8]) was ≥ 231 min, the “Activin A-20 nM (RU)” value (Activin A [9]) was 49 RU and the Kd (Activin A [9]) was ≤ 0.00636 nM. For the same binder, the kon (Activin A [9]) was 7.86e+06 M⁻¹ s⁻¹, the t1/2 (Activin A [9]) was ≥ 231 min and the koff (Activin A [10]) was ≤ 5e-05 s⁻¹. The koff (Activin A [11]) was ≤ 5e-05 s⁻¹.
